In PMC4383634, “Dual-Specificity Anti-sigma Factor Reinforces Control of Cell-Type Specific Gene Expression in Bacillus subtilis” (PLoS Genetics, 2015):

B1: CsfB-StrepII-tagged protein (natural protein, B. subtilis, UniProt P37534 1-64, looked up)
chain: MDETVKLNHTCVICDQEKNRGIHLYTKFICLDCERKVISTSTSDPDYAFYVKKLKSIHTPPLYS
notes: CsfB (Gin), anti-sigma factor of B. subtilis; source: E. coli, overproduced and partially purified; not shown: Strep II tag, C-terminal, kept
B2: His6-CsfB (natural protein, B. subtilis, UniProt P37534 1-64, looked up)
chain: B1 chain
notes: CsfB (Gin), anti-sigma factor of B. subtilis; the plasmid is described in S1 Text; also called purified CsfB; source: E. coli, overproduced, purified (Ni-NTA, Superdex 75); not shown: His6, N-terminal, kept

Assays:
Settings in all cases: both partners purified
GST-σ^(E 30–172) = target: T1, GST-σ^(E 30–172) (B. subtilis, UniProt P06222 30-172); assay: pull-down; GST or GST-σ^E fusions on glutathione beads incubated with CsfB-Strep II (100 nM); after washing, eluted proteins immunoblotted with anti-Strep II tag antibody
T1 construct: σ^E of B. subtilis, residues 30-172, regions 2.1 through 3.1; also called fragment d; regions 2.1 through 3.1; source: E. coli, overproduced and partially purified; not shown: GST, N-terminal, kept
T1 sequence (looked up): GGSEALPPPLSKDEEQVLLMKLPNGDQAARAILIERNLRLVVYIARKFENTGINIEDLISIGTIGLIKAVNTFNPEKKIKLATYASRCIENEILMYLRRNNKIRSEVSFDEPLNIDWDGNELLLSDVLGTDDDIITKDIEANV

[1] = target: T2, GST-σ^E fusion protein, lacking its pro region (sigma fragment a) (B. subtilis, UniProt P06222 30-239); assay: as above
T2 construct: source: E. coli, overproduced and partially purified; not shown: GST, N-terminal, kept
T2 sequence (looked up): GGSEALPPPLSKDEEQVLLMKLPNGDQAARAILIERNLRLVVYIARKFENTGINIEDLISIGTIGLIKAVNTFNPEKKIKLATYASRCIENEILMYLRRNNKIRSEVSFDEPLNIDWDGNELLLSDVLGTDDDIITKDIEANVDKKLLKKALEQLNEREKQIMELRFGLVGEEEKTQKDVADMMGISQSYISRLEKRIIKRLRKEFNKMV

GST-σ^(E 30–141) = target: T3, GST-σ^(E 30–141) (B. subtilis, UniProt P06222 30-141); assay: as above
T3 construct: also called fragment c; regions 2.1 through 2.4; source: E. coli, overproduced and partially purified; not shown: GST, N-terminal, kept
T3 sequence (looked up): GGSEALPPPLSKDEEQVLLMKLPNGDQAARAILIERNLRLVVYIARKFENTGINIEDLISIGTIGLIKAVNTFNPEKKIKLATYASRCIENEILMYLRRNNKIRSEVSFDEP

[2] = target: T4, σ^E, untagged, lacking its pro-sequence (B. subtilis, UniProt P06222 30-239); assay: pull-down; Ni2+-NTA affinity chromatography: His6-CsfB held on the column, untagged purified σ^E or σ^K applied, eluted with an imidazole buffer, SDS-PAGE and Coomassie staining
T4 construct: printed molecular weight 29 kDa; a tag was perhaps removed; also called purified σ^E; source: E. coli, overproduced, purified
T4 sequence (looked up): T2 sequence (looked up)

Binder | binding result (GST-σ^(E 30–172)) | binding result [1] | binding result (GST-σ^(E 30–141)) | binding result [2]
B1 | binds | binds | binds | –
B2 | – | – | – | binds
